The record followed here is patent US20030003461, “Truncation selex method” (Gilead Sciences, Inc., published 2003).

Data set [1] has as its target TGFβ1 (Homo sapiens, UniProt P01137 P01137:279-390). Briefly: cell_activity; full inhibition of TGFβ1 in mink lung epithelial cell proliferation assay. The conditions noted are these: tags: recombinant human, R&D Systems; chain copies: 2. As to the method: RNA was synthesized by phosphoramidite chemistry. Indicator cells (mink lung epithelial cells) were incubated with TGFβ1 and dilutions of RNA as described. The extent of cell proliferation was measured by ³H-thymidine incorporation and the data were analyzed as described. The points represent an average of n=2 and error bars are standard errors. The sequence of CD70syn and 30N7-9syn are 5′[…] (SEQ ID NO:323) and 5′[…] (SEQ ID NO:324), respectively.
The bioactivity of TGFβ1 nucleic acid ligands was measured with mink lung epithelial cells as described in U.S. patent application Ser. No. 09/046,247, filed Mar. 23, 1998. Briefly, proliferation of these cells is inhibited by TGFβ1. Human TGFβ1 was titrated on the cells and ³H-thymidine incorporation was measured. The point at which ³H-thymidine incorporation by the cells was inhibited by 90-100% was determined (typically 1-4 pM). This inhibitory amount of TGFβ1 along with varying amounts of nucleic acid ligand (typically 0.3 or 1 nM to 1 or 3 μM, in 3 fold increments) was used. Cells were plated at 1×10⁵/ml in 96-well plates in 100 μl MEM, 10 mM HEPES pH 7.5, 0.2% FBS. […] After incubation, the cells were lysed with 1% Triton X-100 and harvested onto GF/B filter plates by the Packard 96 well plate harvester, and ³H-thymidine incorporation in cellular DNA was quantitated by scintillation counting in microscint at the Packard Top-Count. […]

Data set [2] has as its target T1, MS2 coat protein (MS2 CP) (bacteriophage MS2, UniProt P03612 P03612:2-130, V75E;A81G). Briefly: filter; binds better than natural MS2 site. The conditions noted are these: chain copies: 2 (dimer, stated); hairpin.
In data set [3] the target is T2, VEGF (Homo sapiens, UniProt P15692-4 P15692-4:27-191). Briefly: filter; phenotype 4: unaffected. The conditions noted are these: tags: recombinant human, R&D Systems; chain copies: 2.
T2 sequence (P15692 other isoform, or with tags, fused parts or gaps): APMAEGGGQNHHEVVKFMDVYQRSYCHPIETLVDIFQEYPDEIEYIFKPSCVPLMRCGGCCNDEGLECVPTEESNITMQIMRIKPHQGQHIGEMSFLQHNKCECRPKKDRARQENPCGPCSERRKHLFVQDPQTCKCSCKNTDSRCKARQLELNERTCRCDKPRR
The target of data set [4] is T2, VEGF. Description: filter; phenotype 3: gains significant affinity when truncated. To be noted: tags: recombinant human, R&D Systems; chain copies: 2.
The target in data set [5] is T2, VEGF. Description: filter; phenotype 5: non-binding with or without 3' fixed sequence. To be noted: tags: recombinant human, R&D Systems; chain copies: 2.
The target of data set [6] is T1, MS2 coat protein (MS2 CP). Briefly: filter; only marginally worse than full isolate. To be noted: chain copies: 2 (dimer, stated); hairpin.
For data set [7], the target named is T2, VEGF. Briefly: filter; phenotype 4: unaffected (Table 10 clone 34,36a: phenotype 1). To be noted: tags: recombinant human, R&D Systems; chain copies: 2.
Data set [8] has as its target T1, MS2 coat protein (MS2 CP). Description: filter; tightest of the isolates; 100 mM HEPES-KOH pH 7.5, 80 mM KCl, 10 mM MgCl2, 24-25 C. The conditions noted are these: chain copies: 2 (dimer, stated); hairpin.

TGFβ1, sequence (P01137 279-390, one chain of several): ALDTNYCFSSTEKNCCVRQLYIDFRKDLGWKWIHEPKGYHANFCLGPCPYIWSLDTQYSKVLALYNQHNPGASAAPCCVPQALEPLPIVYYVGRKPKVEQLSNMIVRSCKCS

One may read the Ki as a dissociation constant, usually derived from enzyme kinetics or from competition with a known ligand. As for GGGUGCCUUUUGCCUAGGUUGUGAUUUGUAACCUUCUGCCCA (ssRNA, 2'-F pyrimidines (inferred)) [CD70syn], the Ki in data set [1] was about 74.6 nM.

B1: o356 isolate 3 (ssRNA)
RNA: GGGAAAGCCCACGCCAAUGUUCCACCAGCAGGGGAAAUGAUGUUGUUCUGGCUACCGAACUGCCGCACC
As to B1, the binding result in data set [2] is listed as “binds”.

B2: VEGF hyb 1 (ssRNA)
RNA: GGGAGGACGAUGCGGAGCUAGGUGAAUGCCGAUAUUCUCUUCCGUCAGACGACUCGCCCGA
modifications: 2'-F pyrimidines
For B2, the binding result in data set [3] is listed as “binds”.

B3: VEGF hyb 21b (ssRNA)
RNA: GGGAGGACGAUGCGGUACUAGGUGAAUGCCGAUAAUCUUAUCCGUCAGACGACUCGCCCGA
modifications: 2'-F pyrimidines
B3: the binding result in data set [4] is on record as “binds”.

B4: VEGF hyb 13b,21a (ssRNA)
RNA: GGGAGGACGAUGCGGUGUUGAUCGAGAUUUAAUCUAUUUCCACGUCAGACGACUCGCCCGA
modifications: 2'-F pyrimidines
On to B4, for which, in data set [4], the binding result is “binds”.

B5: VEGF hyb 4a (ssRNA)
RNA: GGGAGGACGAUGCGGAAACGGAACUUCUUGGAUACAUCUGCUCGUCAGACGACUCGCCCGA
modifications: 2'-F pyrimidines
As for B5, the binding result in data set [4] is “binds”.

B6: VEGF hyb 6 (ssRNA)
RNA: GGGAGGACGAUGCGGAUUUGGAUGCAUGUCAAGGCGUUUUGCCCUCAGACGACUCGCCCGA
modifications: 2'-F pyrimidines
For B6, the binding result in data set [3] is recorded as “binds”.

B7: VT30.9 (ssRNA)
RNA: GGGAGGACGAUGCGGUCAACCGGUUGAAUAUUUGGUCGCUGACCUCAGACGACUCGCCCGA
modifications: 2'-F pyrimidines
As to B7, the binding result in data set [3] was “binds”.

B8: T2-23 (ssRNA)
RNA: GGGAGGGACUGAAUGAAUGUUGACGGUUACGCUUUCCCCACAGACGACUCGCCCGA
modifications: 2'-F pyrimidines
With B8, the binding result in data set [3] is on record as “binds”.

Regarding GGGAGGAAGAAUUGGAAACAUUGCUCGUCAGACGACUCGCCCGA (ssRNA, 2'-F pyrimidines) [T1-11], the binding result in data set [5] was “no binding”.

As for GGCACGCGUAUUCACUGAGCAUCAGCCAGACUGUGU (ssRNA) [rffG minus fixed sequences], the binding result in data set [6] is given as “binds”.

B9: isolate 7 (ssRNA)
RNA: GGGAAAGCCCACGCCAGUAAUUACGCCAUGAACACAGGCAUAAAGAAGUACAUAUGGUACCGAACUGCCGCACC
On to B9, for which, in data set [2], the binding result was “binds”.

B10: VEGF hyb 10,16b (ssRNA)
RNA: GGGAGGACGAUGCGGUGAAACGGAAGAAUUGGAAACAUUGCUCGUCAGACGACUCGCCCGA
modifications: 2'-F pyrimidines
Take B10: in data set [7], the binding result is given as “binds”.

B11: pheT isolate 2 (ssRNA)
RNA: GGGAAAGCCCACGCCCUUCGCUUCAGUACCGUCGAGCAGCACCAGCGUUUCGCCACCGAACUGCCGCACC
Take B11: the binding result in data set [2] is recorded as “binds”.

B12: rffG isolate 1 (ssRNA)
RNA: GGGAAAGCCCACGCCGGCACGCGUAUUCACUGAGCAUCAGCCAGACUGUGUACCGAACUGCCGCACC
For the molecule B12, the binding result in data set [8] is recorded as “binds”.

B13: mreD isolate 5 (ssRNA)
RNA: GGGAAAGCCCACGCCUGAUUUGCAGCAACAGCGCAAUGAGGAAAGAGAGCCAGAUUACCCACCGAACUGCCGCACC
For the molecule B13, in data set [2], the binding result is listed as “binds”.

B14: ygiI isolate 4 (ssRNA)
RNA: GGGAAAGCCCACGCCUAGGAGAGCGUUAACAACAGCAUCAGCGUUGAAGUGACGGAGGUACCGAACUGCCGCACC
For B14, the binding result in data set [2] is “binds”.

B15: VEGF hyb 2a,23 (VT30.3) (ssRNA)
RNA: GGGAGGACGAUGCGGAGAAUCAGUGAAUGCUUAUAAAUCUCGUGUCAGACGACUCGCCCGA
modifications: 2'-F pyrimidines
Take B15: in data set [3], the binding result is “binds”.
